The values below come from US20060035332.

For assay [1], the target named is human OT7T022 receptor (human). Nature of the assay: competition, 125I-Tyr-hRFRP-3(8), pH 7.5, room temperature. The note with it: modification not given.
In assay [2] the target is human OT7T022 receptor (human). Nature of the assay: competition. The note with it: modification not given.

Chain of human OT7T022 receptor (human) (chain, as listed by the source): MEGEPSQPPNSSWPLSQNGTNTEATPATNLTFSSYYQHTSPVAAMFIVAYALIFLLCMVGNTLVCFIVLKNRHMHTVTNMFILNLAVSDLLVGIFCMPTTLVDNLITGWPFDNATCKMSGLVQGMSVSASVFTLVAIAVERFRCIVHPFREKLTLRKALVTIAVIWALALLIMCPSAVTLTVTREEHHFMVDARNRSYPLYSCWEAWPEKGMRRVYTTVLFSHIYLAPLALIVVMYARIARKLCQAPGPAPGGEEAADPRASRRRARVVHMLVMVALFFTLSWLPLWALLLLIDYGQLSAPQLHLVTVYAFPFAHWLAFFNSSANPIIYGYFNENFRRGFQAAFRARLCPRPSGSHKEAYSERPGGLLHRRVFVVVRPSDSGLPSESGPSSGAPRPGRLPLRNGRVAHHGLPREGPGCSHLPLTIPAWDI

B1: hRFRP-3(5) (peptide)
chain: LPQRF
As to B1, the IC50 in assay [1] was 2.1 nM.

B2: hRFRP-3(6) (peptide)
chain: NLPQRF
In turn, B2 had an IC50 in assay [2] of 2.6 nM.

B3: hRFRP-3(7) (peptide)
chain: PNLPQRF
As to B3, the IC50 in assay [2] turned out to be 0.62 nM. This IC50 lies about 4.2-fold lower than the previous one.

B4: hRFRP-3(31) (peptide)
chain: SAGATANLPLRSGRNMEVSLVRRVPNLPQRF
In assay [1], B4 registered an IC50 of 1.3 nM.

B5: hRFRP-3(28) (peptide)
chain: ATANLPLRSGRNMEVSLVRRVPNLPQRF
In turn, B5 yielded an IC50 in assay [1] of 1.1 nM. The IC50 values of the last two molecules are within 1.5-fold of each other.

As a reminder, the IC50 is the concentration at which inhibition is half-maximal. A higher IC50 goes with weaker potency in that assay.
